Experimental data taken from patent US20230293638A1 (Eli Lilly, published 2023).
Positions count from the first letter of the chain named. Numbered stars: 1 amine (or outer) side, 2 acyl side, 3 side chain; on linkers, the order of the positions; unused ones are H or OH. Square brackets hold non-standard residues; d marks the D form. Side chains are listed from the residue outwards. Ends that are not written are not given here. * marks the point of attachment. C20 diacid = O=C(O)CCCCCCCCCCCCCCCCCCC(=O)*; γGlu = O=C(O)[C@H](CCC(=O)[*:2])N[*:1]; AEEA = NCCOCCOCC(=O)O; Aib = CC(C)(N)C(=O)O

B1: Peptide 31 (peptide)
peptide: Y[Aib]EGTFTSDYSILLDKIAK([AEEA-AEEA-γGlu-C20 diacid])[Aib]AFIEYLIEGGPSSGAPPPS-NH2
modifications: N-terminus assumed
SMILES: CC[C@H](C)[C@H](NC(=O)[C@H](CCCCN)NC(=O)[C@H](CC(=O)O)NC(=O)[C@H](CC(C)C)NC(=O)[C@H](CC(C)C)NC(=O)[C@@H](NC(=O)[C@H](CO)NC(=O)[C@H](Cc1ccc(O)cc1)NC(=O)[C@H](CC(=O)O)NC(=O)[C@H](CO)NC(=O)[C@@H](NC(=O)[C@H](Cc1ccccc1)NC(=O)[C@@H](NC(=O)CNC(=O)[C@H](CCC(=O)O)NC(=O)C(C)(C)NC(=O)[C@@H](N)Cc1ccc(O)cc1)[C@@H](C)O)[C@@H](C)O)[C@@H](C)CC)C(=O)N[C@@H](C)C(=O)N[C@@H](CCCCNC(=O)COCCOCCNC(=O)COCCOCCNC(=O)CC[C@H](NC(=O)CCCCCCCCCCCCCCCCCCC(=O)O)C(=O)O)C(=O)NC(C)(C)C(=O)N[C@@H](C)C(=O)N[C@@H](Cc1ccccc1)C(=O)N[C@H](C(=O)N[C@@H](CCC(=O)O)C(=O)N[C@@H](Cc1ccc(O)cc1)C(=O)N[C@@H](CC(C)C)C(=O)N[C@H](C(=O)N[C@@H](CCC(=O)O)C(=O)NCC(=O)NCC(=O)N1CCC[C@H]1C(=O)N[C@@H](CO)C(=O)N[C@@H](CO)C(=O)NCC(=O)N[C@@H](C)C(=O)N1CCC[C@H]1C(=O)N1CCC[C@H]1C(=O)N1CCC[C@H]1C(=O)N[C@@H](CO)C(N)=O)[C@@H](C)CC)[C@@H](C)CC
B2: Peptide 264 (peptide)
peptide: YXEGTXTSDXSIXLDXKAQXEFIXXLIEGGPSSG
modifications: Aib2; αMeF(2F)6; 4Pal10; αMeL13; Orn16; K17((2-[2-(2-Amino-ethoxy)-ethoxy]-acetyl)2-(γGlu)-CO-(CH2)16-CO2H); Aib20; D-Glu24; αMeY25; C-terminal NH2
B3: Peptide 37 (peptide)
peptide: Y[Aib]EGTFTSDYSILLDKIAQ[Aib]AFIEYLIK([AEEA-AEEA-γGlu-C20 diacid])GGPSSGAPPPS-NH2
modifications: N-terminus assumed
SMILES: CC[C@H](C)[C@H](NC(=O)[C@H](CCCCN)NC(=O)[C@H](CC(=O)O)NC(=O)[C@H](CC(C)C)NC(=O)[C@H](CC(C)C)NC(=O)[C@@H](NC(=O)[C@H](CO)NC(=O)[C@H](Cc1ccc(O)cc1)NC(=O)[C@H](CC(=O)O)NC(=O)[C@H](CO)NC(=O)[C@@H](NC(=O)[C@H](Cc1ccccc1)NC(=O)[C@@H](NC(=O)CNC(=O)[C@H](CCC(=O)O)NC(=O)C(C)(C)NC(=O)[C@@H](N)Cc1ccc(O)cc1)[C@@H](C)O)[C@@H](C)O)[C@@H](C)CC)C(=O)N[C@@H](C)C(=O)N[C@@H](CCC(N)=O)C(=O)NC(C)(C)C(=O)N[C@@H](C)C(=O)N[C@@H](Cc1ccccc1)C(=O)N[C@H](C(=O)N[C@@H](CCC(=O)O)C(=O)N[C@@H](Cc1ccc(O)cc1)C(=O)N[C@@H](CC(C)C)C(=O)N[C@H](C(=O)N[C@@H](CCCCNC(=O)COCCOCCNC(=O)COCCOCCNC(=O)CC[C@H](NC(=O)CCCCCCCCCCCCCCCCCCC(=O)O)C(=O)O)C(=O)NCC(=O)NCC(=O)N1CCC[C@H]1C(=O)N[C@@H](CO)C(=O)N[C@@H](CO)C(=O)NCC(=O)N[C@@H](C)C(=O)N1CCC[C@H]1C(=O)N1CCC[C@H]1C(=O)N1CCC[C@H]1C(=O)N[C@@H](CO)C(N)=O)[C@@H](C)CC)[C@@H](C)CC
B4: Peptide 247 (peptide)
peptide: YXEGTXTSDYSIXLDXKAQXEFIXYLIEGGPSSGAPPPS
modifications: not fully specified; Aib2; αMeF(2F)6; Aib13; Orn16; K17((2-[2-(2-Amino-ethoxy)-ethoxy]-acetyl)2-(γGlu)-CO-(CH2)16-CO2H); Aib20; D-Glu24; C-terminal NH2
B5: Peptide 250 (peptide)
peptide: B4 peptide
modifications: Aib2; αMeF(2F)6; Aib13; Orn16; K17((2-[2-(2-Amino-ethoxy)-ethoxy]-acetyl)2-(γGlu)-CO-(CH2)18-CO2H); Aib20; D-Glu24; C-terminal NH2
B6: Peptide 248 (peptide)
peptide: B4 peptide with X13L
modifications: not fully specified; Aib2; αMeF(2F)6; Orn16; K17((2-[2-(2-Amino-ethoxy)-ethoxy]-acetyl)2-(γGlu)-CO-(CH2)16-CO2H); Aib20; D-Glu24; C-terminal NH2
B7: Peptide 251 (peptide)
peptide: B4 peptide with Y10X, E21A, Y25X
modifications: Aib2; αMeF(2F)6; 4Pal10; αMeL13; Orn16; K17((2-[2-(2-Amino-ethoxy)-ethoxy]-acetyl)2-(εK)-CO-(CH2)18-CO2H); Aib20; D-Glu24; αMeY25; C-terminal NH2
B8: Peptide 249 (peptide)
peptide: B4 peptide
modifications: not fully specified; Aib2; αMeF(2F)6; Nle13; Orn16; K17((2-[2-(2-Amino-ethoxy)-ethoxy]-acetyl)2-(γGlu)-CO-(CH2)16-CO2H); Aib20; D-Glu24; C-terminal NH2
B9: Peptide 32 (peptide)
peptide: Y[Aib]EGTFTSDYSILLDKIAQ[Aib]K([AEEA-AEEA-γGlu-C20 diacid])FIEYLIEGGPSSGAPPPS-NH2
modifications: N-terminus assumed
SMILES: CC[C@H](C)[C@H](NC(=O)[C@H](CCCCN)NC(=O)[C@H](CC(=O)O)NC(=O)[C@H](CC(C)C)NC(=O)[C@H](CC(C)C)NC(=O)[C@@H](NC(=O)[C@H](CO)NC(=O)[C@H](Cc1ccc(O)cc1)NC(=O)[C@H](CC(=O)O)NC(=O)[C@H](CO)NC(=O)[C@@H](NC(=O)[C@H](Cc1ccccc1)NC(=O)[C@@H](NC(=O)CNC(=O)[C@H](CCC(=O)O)NC(=O)C(C)(C)NC(=O)[C@@H](N)Cc1ccc(O)cc1)[C@@H](C)O)[C@@H](C)O)[C@@H](C)CC)C(=O)N[C@@H](C)C(=O)N[C@@H](CCC(N)=O)C(=O)NC(C)(C)C(=O)N[C@@H](CCCCNC(=O)COCCOCCNC(=O)COCCOCCNC(=O)CC[C@H](NC(=O)CCCCCCCCCCCCCCCCCCC(=O)O)C(=O)O)C(=O)N[C@@H](Cc1ccccc1)C(=O)N[C@H](C(=O)N[C@@H](CCC(=O)O)C(=O)N[C@@H](Cc1ccc(O)cc1)C(=O)N[C@@H](CC(C)C)C(=O)N[C@H](C(=O)N[C@@H](CCC(=O)O)C(=O)NCC(=O)NCC(=O)N1CCC[C@H]1C(=O)N[C@@H](CO)C(=O)N[C@@H](CO)C(=O)NCC(=O)N[C@@H](C)C(=O)N1CCC[C@H]1C(=O)N1CCC[C@H]1C(=O)N1CCC[C@H]1C(=O)N[C@@H](CO)C(N)=O)[C@@H](C)CC)[C@@H](C)CC
B10: Peptide 34 (peptide)
peptide: Y[Aib]EGTFTSDYSILLDKIAQ[Aib]AFIK([AEEA-AEEA-γGlu-C20 diacid])YLIEGGPSSGAPPPS-NH2
modifications: N-terminus assumed
SMILES: CC[C@H](C)[C@H](NC(=O)[C@H](CCCCN)NC(=O)[C@H](CC(=O)O)NC(=O)[C@H](CC(C)C)NC(=O)[C@H](CC(C)C)NC(=O)[C@@H](NC(=O)[C@H](CO)NC(=O)[C@H](Cc1ccc(O)cc1)NC(=O)[C@H](CC(=O)O)NC(=O)[C@H](CO)NC(=O)[C@@H](NC(=O)[C@H](Cc1ccccc1)NC(=O)[C@@H](NC(=O)CNC(=O)[C@H](CCC(=O)O)NC(=O)C(C)(C)NC(=O)[C@@H](N)Cc1ccc(O)cc1)[C@@H](C)O)[C@@H](C)O)[C@@H](C)CC)C(=O)N[C@@H](C)C(=O)N[C@@H](CCC(N)=O)C(=O)NC(C)(C)C(=O)N[C@@H](C)C(=O)N[C@@H](Cc1ccccc1)C(=O)N[C@H](C(=O)N[C@@H](CCCCNC(=O)COCCOCCNC(=O)COCCOCCNC(=O)CC[C@H](NC(=O)CCCCCCCCCCCCCCCCCCC(=O)O)C(=O)O)C(=O)N[C@@H](Cc1ccc(O)cc1)C(=O)N[C@@H](CC(C)C)C(=O)N[C@H](C(=O)N[C@@H](CCC(=O)O)C(=O)NCC(=O)NCC(=O)N1CCC[C@H]1C(=O)N[C@@H](CO)C(=O)N[C@@H](CO)C(=O)NCC(=O)N[C@@H](C)C(=O)N1CCC[C@H]1C(=O)N1CCC[C@H]1C(=O)N1CCC[C@H]1C(=O)N[C@@H](CO)C(N)=O)[C@@H](C)CC)[C@@H](C)CC

Target: human GLP-1 receptor (human, UniProt P43220 24-463)
Assay: cell-based or functional assay

| Binder | hGLPIR cAMP EC50 ratio |
| --- | --- |
| B1 | 0.0708 |
| B2 | 3.19 |
| B3 | 0.0533 |
| B4 | 0.614 |
| B5 | 0.985 |
| B6 | 0.8 |
| B7 | 1.37 |
| B8 | 0.778 |
| Y[Aib]EGTFTSDYSILLDKIAQ[Aib]AFK([AEEA-AEEA-γGlu-C20 diacid])EYLIEGGPSSGAPPPS-NH2 [Peptide 33] | 0.000256 |
| B9 | 0.136 |
| B10 | 0.0392 |
